# Assay results from patent US20240279278A1, “NMU RECEPTOR 2 AGONISTS” (Boehringer Ingelheim International GmbH, priority 2023, published 2024).
# T1: human neuromedin U receptor 1 (human, UniProt Q9HB89 24-426)
# T1 sequence (looked up): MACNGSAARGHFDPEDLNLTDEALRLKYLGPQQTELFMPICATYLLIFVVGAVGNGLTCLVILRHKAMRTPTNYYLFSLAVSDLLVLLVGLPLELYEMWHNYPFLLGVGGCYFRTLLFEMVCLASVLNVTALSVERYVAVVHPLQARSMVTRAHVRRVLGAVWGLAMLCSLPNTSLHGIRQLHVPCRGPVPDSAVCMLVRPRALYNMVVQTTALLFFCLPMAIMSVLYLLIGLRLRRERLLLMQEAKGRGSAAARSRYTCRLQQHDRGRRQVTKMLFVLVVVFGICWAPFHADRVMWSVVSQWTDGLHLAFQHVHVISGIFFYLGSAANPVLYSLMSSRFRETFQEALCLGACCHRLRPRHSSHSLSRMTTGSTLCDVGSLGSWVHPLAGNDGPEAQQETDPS
# Assays:
# [1] = cited from earlier work
# [2] = molecular target: human neuromedin U receptor 2 (human, UniProt Q9GZQ4 1-415); experiment: cell-based or functional assay
# Sequence of human neuromedin U receptor 2 (Q9GZQ4 whole entry): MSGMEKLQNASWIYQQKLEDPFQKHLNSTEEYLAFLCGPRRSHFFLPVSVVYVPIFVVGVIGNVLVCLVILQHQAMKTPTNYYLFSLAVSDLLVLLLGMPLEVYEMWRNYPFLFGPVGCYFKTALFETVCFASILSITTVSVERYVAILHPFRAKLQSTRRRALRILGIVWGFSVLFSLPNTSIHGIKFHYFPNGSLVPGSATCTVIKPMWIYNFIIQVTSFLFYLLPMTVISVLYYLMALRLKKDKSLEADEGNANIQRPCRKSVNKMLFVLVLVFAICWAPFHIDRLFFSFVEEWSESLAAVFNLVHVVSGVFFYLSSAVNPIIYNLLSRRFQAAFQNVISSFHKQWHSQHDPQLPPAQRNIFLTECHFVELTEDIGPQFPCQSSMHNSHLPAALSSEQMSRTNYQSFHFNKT
# [3] = molecular target: T1, human neuromedin U receptor 1; experiment: cell-based or functional assay
Molecule,half-life after subcutaneous injection [1],EC50 (activity as measured in Example 3) [2] [nM],EC50 (activity as measured in Example 3) [3] [nM]
Neuromedin U [native NMU],less than 5 min,–,–
EEEXXXXXXXXXXXXXXXXYFLXRPRG (HELM PEPTIDE1{[CCCCCCCCCCCCCCCCCC(=O)[*:2]].[gGlu].[gGlu].[gGlu].[Sar].[Sar].[Sar].[Sar].[Sar].[Sar].[Sar].[Sar].[Sar].[Sar].[Sar].[Sar].[Sar].[Sar].[Sar].[O=C(CN1CCN(CCN[*:1])CC1)[*:2]].Y.F.[meL].[Nle].R.P.R.G.[am]}$$$$V2.0; SMILES CCCCCCCCCCCCCCCCCC(=O)N[C@@H](CCC(=O)N[C@@H](CCC(=O)N[C@@H](CCC(=O)N(C)CC(=O)N(C)CC(=O)N(C)CC(=O)N(C)CC(=O)N(C)CC(=O)N(C)CC(=O)N(C)CC(=O)N(C)CC(=O)N(C)CC(=O)N(C)CC(=O)N(C)CC(=O)N(C)CC(=O)N(C)CC(=O)N(C)CC(=O)N(C)CC(=O)NCCN1CCN(CC(=O)N[C@@H](Cc2ccc(O)cc2)C(=O)N[C@@H](Cc2ccccc2)C(=O)N(C)[C@@H](CC(C)C)C(=O)N[C@@H](CCCC)C(=O)N[C@@H](CCCNC(=N)N)C(=O)N2CCC[C@H]2C(=O)N[C@@H](CCCNC(=N)N)C(=O)NCC(N)=O)CC1)C(=O)O)C(=O)O)C(=O)O) [C18A-gGlu3-Sar15-AEPipAc-Tyr-Phe-NMeLeu-Nle-Arg-Pro-Arg-Gly-NH2],–,0.046,0.2
EEEXXXXXXXXXXXXXXXXYFLXXPRG (HELM PEPTIDE1{[O=C(O)CCCCCCCCCCCCCCCCCCC(=O)[*:2]].[gGlu].[gGlu].[gGlu].[Sar].[Sar].[Sar].[Sar].[Sar].[Sar].[Sar].[Sar].[Sar].[Sar].[Sar].[Sar].[Sar].[Sar].[Sar].[O=C(CN1CCN(CCN[*:1])CC1)[*:2]].Y.F.L.[Nle].[Orn].P.R.G.[am]}$$$$V2.0; SMILES CCCC[C@H](NC(=O)[C@H](CC(C)C)NC(=O)[C@H](Cc1ccccc1)NC(=O)[C@H](Cc1ccc(O)cc1)NC(=O)CN1CCN(CCNC(=O)CN(C)C(=O)CN(C)C(=O)CN(C)C(=O)CN(C)C(=O)CN(C)C(=O)CN(C)C(=O)CN(C)C(=O)CN(C)C(=O)CN(C)C(=O)CN(C)C(=O)CN(C)C(=O)CN(C)C(=O)CN(C)C(=O)CN(C)C(=O)CN(C)C(=O)CC[C@H](NC(=O)CC[C@H](NC(=O)CC[C@H](NC(=O)CCCCCCCCCCCCCCCCCCC(=O)O)C(=O)O)C(=O)O)C(=O)O)CC1)C(=O)N[C@@H](CCCN)C(=O)N1CCC[C@H]1C(=O)N[C@@H](CCCNC(=N)N)C(=O)NCC(N)=O) [C20DA-gGlu3-Sar15-AEPipAc-Tyr-Phe-Leu-Nle-Orn-Pro-Arg-Gly-NH2],–,3,75
EEEXXXXXXXXXXXXXXXXYFLXRPRG (HELM PEPTIDE1{[O=C(O)CCCCCCCCCCCCCCCCC(=O)[*:2]].[gGlu].[gGlu].[gGlu].[Sar].[Sar].[Sar].[Sar].[Sar].[Sar].[Sar].[Sar].[Sar].[Sar].[Sar].[Sar].[Sar].[Sar].[Sar].[O=C(CN1CCN(CCN[*:1])CC1)[*:2]].Y.F.L.[Nle].R.P.R.G.[am]}$$$$V2.0; SMILES CCCC[C@H](NC(=O)[C@H](CC(C)C)NC(=O)[C@H](Cc1ccccc1)NC(=O)[C@H](Cc1ccc(O)cc1)NC(=O)CN1CCN(CCNC(=O)CN(C)C(=O)CN(C)C(=O)CN(C)C(=O)CN(C)C(=O)CN(C)C(=O)CN(C)C(=O)CN(C)C(=O)CN(C)C(=O)CN(C)C(=O)CN(C)C(=O)CN(C)C(=O)CN(C)C(=O)CN(C)C(=O)CN(C)C(=O)CN(C)C(=O)CC[C@H](NC(=O)CC[C@H](NC(=O)CC[C@H](NC(=O)CCCCCCCCCCCCCCCCC(=O)O)C(=O)O)C(=O)O)C(=O)O)CC1)C(=O)N[C@@H](CCCNC(=N)N)C(=O)N1CCC[C@H]1C(=O)N[C@@H](CCCNC(=N)N)C(=O)NCC(N)=O) [C18DA-gGlu3-Sar15-AEPipAc-Tyr-Phe-Leu-Nle-Arg-Pro-Arg-Gly-NH2],–,1.7,21
EEEXXXXXXXXXXXXXYFLXXPRG (HELM PEPTIDE1{[CCCCCCCCCCCCCCCCCC(=O)[*:2]].[gGlu].[gGlu].[gGlu].[Sar].[Sar].[Sar].[Sar].[Sar].[Sar].[Sar].[Sar].[Sar].[Sar].[Sar].[Sar].[O=C(CN1CCN(CCN[*:1])CC1)[*:2]].Y.F.[meL].[Nle].[Orn].P.R.G.[am]}$$$$V2.0; SMILES CCCCCCCCCCCCCCCCCC(=O)N[C@@H](CCC(=O)N[C@@H](CCC(=O)N[C@@H](CCC(=O)N(C)CC(=O)N(C)CC(=O)N(C)CC(=O)N(C)CC(=O)N(C)CC(=O)N(C)CC(=O)N(C)CC(=O)N(C)CC(=O)N(C)CC(=O)N(C)CC(=O)N(C)CC(=O)N(C)CC(=O)NCCN1CCN(CC(=O)N[C@@H](Cc2ccc(O)cc2)C(=O)N[C@@H](Cc2ccccc2)C(=O)N(C)[C@@H](CC(C)C)C(=O)N[C@@H](CCCC)C(=O)N[C@@H](CCCN)C(=O)N2CCC[C@H]2C(=O)N[C@@H](CCCNC(=N)N)C(=O)NCC(N)=O)CC1)C(=O)O)C(=O)O)C(=O)O) [C18A-gGlu3-Sar12-AEPipAc-Tyr-Phe-NMeLeu-Nle-Orn-Pro-Arg-Gly-NH2],–,0.047,0.37
EEEXXXXXXXXXXXXXYFLXXPRG (HELM PEPTIDE1{[O=C(O)CCCCCCCCCCCCCCCCC(=O)[*:2]].[gGlu].[gGlu].[gGlu].[Sar].[Sar].[Sar].[Sar].[Sar].[Sar].[Sar].[Sar].[Sar].[Sar].[Sar].[Sar].[O=C(CN1CCN(CCN[*:1])CC1)[*:2]].Y.F.L.[Nle].[Orn].P.R.G.[am]}$$$$V2.0; SMILES CCCC[C@H](NC(=O)[C@H](CC(C)C)NC(=O)[C@H](Cc1ccccc1)NC(=O)[C@H](Cc1ccc(O)cc1)NC(=O)CN1CCN(CCNC(=O)CN(C)C(=O)CN(C)C(=O)CN(C)C(=O)CN(C)C(=O)CN(C)C(=O)CN(C)C(=O)CN(C)C(=O)CN(C)C(=O)CN(C)C(=O)CN(C)C(=O)CN(C)C(=O)CN(C)C(=O)CC[C@H](NC(=O)CC[C@H](NC(=O)CC[C@H](NC(=O)CCCCCCCCCCCCCCCCC(=O)O)C(=O)O)C(=O)O)C(=O)O)CC1)C(=O)N[C@@H](CCCN)C(=O)N1CCC[C@H]1C(=O)N[C@@H](CCCNC(=N)N)C(=O)NCC(N)=O) [C18DA-gGlu3-Sar12-AEPipAc-Tyr-Phe-Leu-Nle-Orn-Pro-Arg-Gly-NH2],–,2.1,68
EEEXXXXXXXXXXXXXXXXYFLXXPRG (HELM PEPTIDE1{[CCCCCCCCCCCCCCCCCCCC(=O)[*:2]].[gGlu].[gGlu].[gGlu].[Sar].[Sar].[Sar].[Sar].[Sar].[Sar].[Sar].[Sar].[Sar].[Sar].[Sar].[Sar].[Sar].[Sar].[Sar].[O=C(CN1CCN(CCN[*:1])CC1)[*:2]].Y.F.[meL].[Nle].[Orn].P.R.G.[am]}$$$$V2.0; SMILES CCCCCCCCCCCCCCCCCCCC(=O)N[C@@H](CCC(=O)N[C@@H](CCC(=O)N[C@@H](CCC(=O)N(C)CC(=O)N(C)CC(=O)N(C)CC(=O)N(C)CC(=O)N(C)CC(=O)N(C)CC(=O)N(C)CC(=O)N(C)CC(=O)N(C)CC(=O)N(C)CC(=O)N(C)CC(=O)N(C)CC(=O)N(C)CC(=O)N(C)CC(=O)N(C)CC(=O)NCCN1CCN(CC(=O)N[C@@H](Cc2ccc(O)cc2)C(=O)N[C@@H](Cc2ccccc2)C(=O)N(C)[C@@H](CC(C)C)C(=O)N[C@@H](CCCC)C(=O)N[C@@H](CCCN)C(=O)N2CCC[C@H]2C(=O)N[C@@H](CCCNC(=N)N)C(=O)NCC(N)=O)CC1)C(=O)O)C(=O)O)C(=O)O) [C20A-gGlu3-Sar15-AEPipAc-Tyr-Phe-NMeLeu-Nle-Orn-Pro-Arg-Gly-NH2],–,0.054,0.33
